From paper PMC9392796, “A mannose-sensing AraC-type transcriptional activator regulates cell–cell aggregation of Vibrio cholerae” (NPJ Biofilms and Microbiomes, 2022)

B1: MB2 WT (dsDNA)
DNA 1: CAAACCAATAGAGTTACAATCCTCTAGTGAATGTTTTAT
DNA 2: ATAAAACATTCACTAGAGGATTGTAACTCTATTGGTTTG
B2: MB1 WT (dsDNA)
DNA 1: AGACAGAATGATACAATAATCCAGTTTTAACACCAATTC
DNA 2: GAATTGGTGTTAAAACTGGATTATTGTATCATTCTGTCT

Columns and labels:
ManR (VC1825) [1] = target: T1, ManR (VC1825) (Vibrio cholerae, UniProt Q9KR22); settings: 50 mM HEPES-NaOH pH 8.0, 500 mM NaCl, 10% glycerol, 1 mM TCEP, 0.5 mg/ml BSA, 0.05% Tween 20, 23 °C; NT-647-labelled protein 2 nM; effector (co-activator)
T1 construct: gene VC_1825

[2] = target: ManR (VC1825), AraC-type transcriptional regulator of Vibrio cholerae (Vibrio cholerae N16961); assay: not stated; Supplementary Fig. 3; method and conditions not shown
ManR (VC1825) [3] = target: ManR (VC1825) (Vibrio cholerae N16961, UniProt Q9KR22 1-279); assay: EMSA; one complex; settings: protein: recombinant; chain copies: 2; blunt

| Molecule | Kd (ManR (VC1825) [1]) [µM] | binding result (ManR (VC1825) [3]) | further results |
| --- | --- | --- | --- |
| O=P(O)(O)OCC1(O)O[C@H](CO)[C@@H](O)[C@@H]1O (some centres unmarked) [F1P, fructose 1-phosphate] | ~411 |  |  |
| O=P(O)(O)OC[C@H]1OC(O)[C@@H](O)[C@@H](O)[C@@H]1O (some centres unmarked) [M6P, mannose 6-phosphate] | ~0.152 |  |  |
| ManR (VC1825), AraC-type transcriptional regulator of Vibrio cholerae (natural protein) |  |  | stoichiometry N [2]: 2 |
| B1 |  | binds |  |
| B2 |  | binds |  |
